Laboratory results: article PMC4604023
Where two headings read alike, the source gives them in different places.

What was measured:
nucleocapsid protein N [1] = target: nucleocapsid protein N (Rift Valley fever virus, UniProt P21700 1-245); assay: filter binding
Target sequence in this assay (P21700 whole entry): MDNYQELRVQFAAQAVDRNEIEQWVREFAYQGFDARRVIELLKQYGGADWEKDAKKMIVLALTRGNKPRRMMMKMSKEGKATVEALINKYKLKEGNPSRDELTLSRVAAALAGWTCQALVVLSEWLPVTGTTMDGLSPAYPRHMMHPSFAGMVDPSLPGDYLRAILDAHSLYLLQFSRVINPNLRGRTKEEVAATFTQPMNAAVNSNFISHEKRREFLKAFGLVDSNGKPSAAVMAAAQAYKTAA

nucleocapsid protein N [2] = target: nucleocapsid protein N (Rift Valley fever virus, UniProt P21700 1-245); assay: filter binding; remark: listed apart in the source
Target sequence in this assay (P21700 whole entry): as above

Binder	binding result (nucleocapsid protein N [1])	binding result (nucleocapsid protein N [2])
AS2 (AS-2) (structured_RNA) RNA: GGAGUAUCUGUCGGCAUCACGCUUGGAUGUGCAAGGCUCUUUAUCUCUAUUAUGCAAG	binds	
MBE87 (structured_RNA) RNA: GGCAUUACGGCCGGGAGCCAGUAUUACUGAUUGAUGAUUCUGUGGGCGUCUUCUAG		binds
AS4 (AS-4) (structured_RNA) RNA: GGGGCGCGUUCUAAACAACGAUUGCCGACAAGACGAUUUCUGGGUCAAACUUUAUUCG	binds	
AS1 (AS-1) (structured_RNA) RNA: GGUCGACAGGCUAGGCCGUCUAAAGCUGAUUGCUCCCGGGGAAUAAUUAUUGACAGCU	binds	
